Laboratory results as given in the DeepSol protein solubility set.

Assay: soluble on expression in E. coli; label from the status in PepcDB or PDB records

Sequence	soluble on expression in E. coli
MALRLAVSSALRPALNSQVRNASSAVSVKDVLASAPQAEVTTLKNGFRVVTEDNGSATATVGVWIETGSRFENEKNNGVAHFLERLIHKGTGKRASAALESELNAIGAKLNSFTERDQTAVFVQAGAQDVEKVVDILADVLRNSKLEASTIDTERVNLLKELEASDDYHQLVLFDMLHAAGFQGTPLALSVLGTSESIPNISAQQLKEWQEDHYRPVRMVLSAVGGGVSNVSSLADKYFGDLSNEYPRKVPQVDGTRFTGSEYRYRNDNVPHMYAAFAVEGVGYAHKDALALQIANQFIGQWDVTHATSRTAASRLVQKIGHDHGVHNLQHFNINYKDTGLFGIYFVADAHDLNDTSGIMKSVAHEWKHLASAATEEEVAMAKNQFRTNLYQNLETNTQKAGFNAKELLYTGNLRQLSELEAQIQKVDAGAVREAISRHVYDRDLAAVGVGRTEAFPNYALTRAGMSWWRM	not soluble
DKIIMDPHAVLGPVDPQLGQYPAPSIVRAVEKKGVDKVDDQTLILADVAEKAIRQVRDFIFNLLKDKYGEEKAKELAQVLTEGRWTHDYPITVEEAKKLGLNVSTDVPEEVYALMELYKQPIRQRGTVEFVPYPMKQEGK	not soluble
MTISELLQYCMAKPGAEQSVHNDWKATQIKVEDVLFAMVKEVENRPAVSLKTSPELAELLRQQHSDVRPSRHLNKAHWSTVYLDGSLPDSQIYYLVDASYQQAVNLLPEEKRKLLVQL	not soluble
MAHHHHHHMSSHQILITAPEVYSKRFAQALEARSLIPMAVPVIETIATPDTADMRALLEQDLNGIDYIAFCSRCAVDSLSAALDHRYGGGGESVSERAGSAPAVNEDRRATAVVKVLAKCALAAIGKDADYVFERLRIRTTICPDEPSPAGIAAKLAESGRAEGRTIAVLAPCVEGFTEPDVVPRFVDQLKGMGMKVVRVDAYMTRPVSEEAVSAAVTALKNGSVRGVAFTSAGEIAVLLRRSPQCLMNIDVACFGPYTAGFAAKHGVKVSCVAKDFRSFDGFAATIEQHYASR	soluble
MGSDKIHHHHHHMDKLDFRSQDFSQTGKAMYELACELFPIPRSITGQGFRDSLEILNKTLGGGILKFHSIKSGTKVFDWIVPDEWNVKEAYIITPKGEKICDFKKHNLHLLNYSEAIDQEIELEELQDHLYSIEEMPDAIPYVTSYYKRRWGFCLTHNERKKLKKGKYKVYIDAKHDENGVLDYADFILPSTQNSKDEILISTYLCHPSMANNELSGPVVSIFLAKWLLGLKERRYNYRFVIIPETIGSIVYLSKHLECLKKHVKAGFVLSCLGDDHTYSLIHTVKENTLSDKVALHTLKNKENFKAFSFLDRGSDERQYNAPLVNLGIVGVCRTRYGDYDGYHNSKDDLNFISEKGLMGGLQSMQEMILNLEINAVYENTIVCEPNLGKRGLYHTLSTTNDIPLACNFLAYCDGENDIIDIANILNMQAYEFKELLEKIKFYGLVK	not soluble
MGSDKIHHHHHHMLNYHHLRYFWIVAHEGNLTRAARKHNIAQSALSMQISALEEYLGQPLFERAGRRLVLTEAGHIALDFADAIFAKGDELLGTFGRLAEAHQKVLRVGALATLSRNFQVGFLRPLFADPEITVIVRSGTLDELLGSLKLYDLDIVLATGVPNRDHATPWIVHIIDTQPVGLIGQPRSDRYQQPLEVLLQREPLIVPSPESTIRTGFDALVHRLGIRPRIVAEIDDMAMMRLVAREHNGLAVIPPIVVTDELRSGMLVEYAELPELVETFCAITMPRRFPNPLLRLVLPGHTTPE	not soluble
MNTNDAKEYLARREIPQLFESLLNGLMCSKPEDPVEYLESCLQKVKELGGCDKVKWDTFVSQEKKTLPPLNGGQSRRSFLRNVMPENSNFPYRRYDRLPPIHQFSIESDTDLSETAELIEEYEVFDPTRPRPKIILVIGGPGSGKGTQSLKIAERYGFQYISVGELLRKKIHSTSSNRKWSLIAKIITTGELAPQETTITEIKQKLMQIPDEEGIVIDGFPRDVAQALSFEDQICTPDLVVFLACANQRLKERLL	soluble
HISSQQHEKAIKSYFDEAQTQGVIIIKEGKNLSTYGNALARANKEYVPASTFKMLNALIGLENHKATTNEIFKWDGKKRTYPMWEKDMTLGEAMALSAVPVYQELARRTGLELMQKEVKRVNFGNTNIGTQVDNFWLVGPLKITPVQEVNFADDLAHNRLPFKLETQEEVKKMLLIKEVNGSKIYAKSGWGMGVTPQVGWLTGWVEQANGKKIPFSLNLEMKEGMSGSIRNEITYKSLENLGII	soluble
GPGSMEQWSACEAATRRVLAVDRTERYPSARRLVRVFISQGRLQEAQQAVSPHRDAIDWAAEVAAVKACTSYTNFYAAHQYSKALESLEVVLSLCPCGTLEAAKARLLSLENAAQAVSYAAQRSRAYATSTELHFCLWSLTFHSVTSVVGLDTLLADMQATPLGRSELRFRHLHTHIARCKEALAKLQVLKTARQWREAATFVTQVLAEPFLPDGLKGVMYYERARALAQQASWYATLDDTHRALSYTEAVSLRANMLLLVARCEEALGRLRDAVYHTEESLGLASNAAAVEQLRSLKARWAHVQASTDAPRTTPRTTSKETPKPNTNANAFSPVSRASLDVHYKTLSLPRSAGAAEVKKSYRALAIKWHPDRWCSASTEAIRTAESTFKTIQHAYEEIMKSAS	not soluble
MAHHHHHHMAQAIRDAFTEEASLTVVEEWSSKVVSDLEARATNAHHARQGVLVKPYTADAAETVPVTIVASLREFQGQLYDIYRAAETIRTVIACRIPELKAEDNLGVEVQMTVLKMIDSLEGKLLGSSSGDKEGGAPGVAGMYAAREYLAARGSVEDKVLGKVSDDDKKTKSAAPSVLMELQQIDADALLKLELSATQISTQIRSFINAYAVNWKKLIQPRTNASEKSIS	soluble
MKLYYSPGACSLSPHIALREAGLNFELVQVDLASKKTASGQDYLEVNPAGYVPCLQLDDGRTLTEGPAIVQYVADQVPGKQLAPANGSFERYHLQQWLNFISSELHKSFSPLFNPASSDEWKNAVRQSLNTRLGQVARQLEHAPYLLGDQLSVADIYLFVVLGWSAYVNIDLSPWPSLQAFQGRVGGREAVQSALRAEGLIKE	soluble
MGSSHHHHHHSQDPDPMQSFADAKEFFQYSAGQWQSRRVTHHLPFRRAESGGSNIQVETLEKDDPRIIEICQMHDMDASLSVGGSYVTWAGTMQWDKDDENHEGSTVFALIPDADNPRQGKLLRERGYAEIVPVAGEYHLDHEDGLVLTTEYETMTIYERFWFANPDLRLRTSTVKRFGGFNTTTFCMEERIQTSPVTATAAAETNPLYAISGW	soluble
MLRTAGRDGLCRLSTYLEELEAVELKKFKLYLGTATELGEGKIPWGSMEKAGPLEMAQLLITHFGPEEAWRLALSTFERINRKDLWERGQREDLVRDTPPGGPSSLGNQSTCLLEVSLVTPRKDPQETYRDYVRRKFRLMEDRNARLGECVNLSHRYTRLLLVKEHSNPMQVQQQLLDTGRGHARTVGHQASPIKIETLFEPDEERPEPPRTVVMQGAAGIGKSMLAHKVMLDWADGKLFQGRFDYLFYINCREMNQSATECSMQDLIFSCWPEPSAPLQELIRVPERLLFIIDGFDELKPSFHDPQGPWCLCWEEKRPTELLLNSLIRKKLLPELSLLITTRPTALEKLHRLLEHPRHVEILGFSEAERKEYFYKYFHNAEQAGQVFNYVRDNEPLFTMCFVPLVCWVVCTCLQQQLEGGGLLRQTSRTTTAVYMLYLLSLMQPKPGAPRLQPPPNQRGLCSLAADGLWNQKILFEEQDLRKHGLDGEDVSAFLNMNIFQKDINCERYYSFIHLSFQEFFAAMYYILDEGEGGAGPDQDVTRLLTEYAFSERSFLALTSRFLFGLLNEETRSHLEKSLCWKVSPHIKMDLLQWIQSKAQSDGSTLQQGSLEFFSCLYEIQEEEFIQQALSHFQVIVVSNIASKMEHMVSSFCLKRCRSAQVLHLYGATYSADGEDRARCSAGAHTLLVQLPERTVLLDAYSEHLAAALCTNPNLIELSLYRNALGSRGVKLLCQGLRHPNCKLQNLRLKRCRISSSACEDLSAALIANKNLTRMDLSGNGVGFPGMMLLCEGLRHPQCRLQMIQLRKCQLESGACQEMASVLGTNPHLVELDLTGNALEDLGLRLLCQGLRHPVCRLRTLWLKICRLTAAACDELASTLSVNQSLRELDLSLNELGDLGVLLLCEGLRHPTCKLQTLRLGICRLGSAACEGLSVVLQANHNLRELDLSFNDLGDWGLWLLAEGLQHPACRLQKLWLDSCGLTAKACENLYFTLGINQTLTDLYLTNNALGDTGVRLLCKRLSHPGCKLRVLWLFGMDLNKMTHSRLAALRVTKPYLDIGC	soluble
MKKDITLFTSARPELKFFRLSECKEHLDTAAMWAKNAWGYMHLDDEQFHYKQLQELCEHVYIAMYDGLPVGMLAVIEKTLSLEENREESSEKIVEEPSTPEITEMKNAYLDYVYIDERARSIGLAGIIIEKAKNLAREMNAEVMSLETLNSTLNGFYKRKGGRVICEGRYNDSYPTEVMRLRF	not soluble
MKIHTTEALMKAEISRRSLMKTSALGSLALASSAFTLPFSQMVRAAEAPVEEKAVWSSCTVNCGSRCLLRLHVKDDTVYWVESDTTGDDVYGNHQVRACLRGRSIRRRMNHPDRLKYPMKRVGKRGEGKFERISWDEALDTISDNLRRILKDYGNEAVHVLYGTGVDGGNITNSNVPYRLMNSCGGFLSRYGSYSTAQISAAMSYMFGANDGNSPDDIANTKLVVMFGNNPAETRMSGGGVTYYVEQARERSNARMIVIDPRYNDTAAGREDEWLPIRPGTDGALACAIAWVLITENMVDQPFLDKYCVGYDEKTLPANAPRNAHYKAYILGEGPDGIAKTPEWAAKITSIPAEKIIQLAREIGSAKPAYICQGWGPQRHSNGEQTSRAIAMLSVLTGNVGINGGNSGVREGSWDLGVEWFPMLENPVKTQISVFTWTDAIDHGTEMTATRDGVRGKEKLDVPIKFLWCYASNTLINQHGDINHTHEVLQDDSKCEMIVGIDHFMTASAKYCDILLPDLMPTEQEDLISHESAGNMGYVILAQPATSAKFERKPIYWMLSEVAKRLGPDVYQTFTEGRSQHEWIKYLHAKTKERNPEMPDYEEMKTTGIFKKKCPEEHYVAFRAFREDPQANPLKTPSGKIEIYSERLAKIADTWELKKDEIIHPLPAYTPGFDGWDDPLRKTYPLQLTGFHYKARTHSSYGNIDVLQQACPQEVWINPIDAQARGIRHGDTVRVFNNNGEMLIAAKVTPRILPGVTAIGQGAWLKADMFGDRVDHGGSINILTSHRPSPLAKGNPSHSNLVQIEKV	not soluble
MGSDKIHHHHHHMFDFKELEAFVWVVRLGSFRKGAAKLYLTQPSISDRITRLEDSVGESLLDRSARPVQPTLRGREFFTYAERLLEGREEAMRLFQDEESFSGTLRLGVIETIASSWCPTFMRRLAERYPQLTIELTVDISPFLHQRLAENDLDMLFAMDGVAPGLCAIQTPLCTYEMGMFAAPEMAATLQRGGPAAFAETAFISFSKQARPYRELVAYLTALGIDTPRIHRTSTLMTIMRMSIEGVGIGVLPVATVRDAVESGSLVRLTLEEPLPPMIYDAIWRSANYPSFCASVARLAKQCATDYAQDHGKLSSPASMKGYVDT	not soluble
MRSISVGLDREESGSDGLCLGLVVLATLAAGFVAGSDVLRCWGFGPATGDVCLWVEAGFWRCPLPGGGADGQGPGFWDAALREARMFCRSCVGLRMIGWRR	not soluble
MWAVIRMRTFRRSTRNAVSRMRKPKPRASAKQRSLERHFGSRQPTKNKFLNAIYWGIRRCQYFLCCYDDEVEDELEDASANPFNTQPPGLDQLVQLTGFNRKWIMFMYRNFKQKCSNGRMTDSQWRILFRSIFPQANDSAFIDRLYAAIVKKKQHPQITFEDLILCLWELSEDGKTSEMGNYHINSSARAQFAFQLMDEEGKGRVDEPGFYKYTRCVFALTAVNKPCTDQIIDASTIGLPASSIYRSTSVDDVLKPMSPLIARFSSKRFKELDTDRDGFITVRDIERELEIQKNEAICLKSLKDFSFEDLKNEEDDDDEDDQDTNPLLSESSSFKKDV	not soluble
